Laboratory results from US7838288B2, “Modulators of odorant receptors” (Duke University, priority 2004, dated 2010).

Legend:
Format in all cases: cell-based, mouse
Conditions in all cases: 293T cells expressing RTP1 variant
[1] = tested on: olfr62; test: CRE-luciferase reporter gene assay, olfr62
How it was run: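 Receptor-transfected 293T cells carrying CRE-luciferase plus SV40-Renilla control, switched to CD293 medium 12 h post-transfection, then exposed to odorants for 4 h at 37 °C. Signal is dual-luciferase normalized activity, [Luc(N) − Luc(0)]/Renilla.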

[2] = tested on: OR-S6/S79; test: CRE-luciferase reporter gene assay, OR-S6/S79
Procedure: Four ORs (S6/79, S18, S46 and S50) previously assayed using other techniques (see, e.g., Malnic, B., et al. (1999) Cell 96, 713-723; herein incorporated by reference in its entirety) were tested against an assay panel of aliphatic alcohols, aldehydes and acids and some other odorants. Additionally, five “orphan” class I ORs (MOR23-1, MOR31-4, MOR31-6, MOR32-5 and MOR32-11) whose cognate ligands were unknown were tested. At a suprathreshold concentration of 100 uM, all these ORs were odorant selective, responding to only a small subset of the odorants tested (see FIG. 11A). This specificity was retained at lower, more physiologically relevant concentrations. Many of these ORs responded to odorants present in micromolar concentrations. The cell-surface expression of these ORs by living-cell immunofluorescence were evaluated. Some ORs (S18, MOR31-4, MOR31-6 and MOR32-5) were strongly expressed while other ORs (S6, S50, MOR23-1, MOR32-11) were weakly expressed (see FIG. 12). The present invention is not limited to a particular mechanism. Indeed, an understanding of the mechanism is not necessary to practice the present invention. […] Finally, two additional orphan class II ORs, MOR203-1 and olfr62, were tested against a panel of 139 odorants. […] Olfr62 responded to coumarine and piperonal (see FIG. 11C). […] When parental 293T cells for these ORs were used in this luciferase assay, little or no response to the odorants was observed. The present invention is not limited to a particular mechanism. Indeed, an understanding of the mechanism is not necessary to practice the present invention.
An expression system has been established that permits rapid identification of ligands for ORs. This system was tested with twelve ORs. Four of the tested ORs (S6/S79, S18, S46, and S50) were expressed in single olfactory neurons responding to aliphatic odorants (see, e.g., Malnic, B., et al. (1999) Cell 96, 713-723; herein incorporated by reference in its entirety). The response profiles of OR-S50, but not that of OR-S18 agreed with the previous report (see, e.g., Malnic, B., et al. (1999) Cell 96, 713-723; herein incorporated by reference in its entirety). […] In experiments conducted during the course of the present invention, OR-S6/S79 responded to nonanedioic acid but not to heptanoic acid or octanoic acid. The present invention is not limited to a particular mechanism. […] When multiple single olfactory neurons that expressed the same OR were recorded against the same set of odorants using calcium imaging, their response profiles were similar but different (see, e.g., Bozza, T., et al. (2002) J Neurosci 22, 3033-3043; herein incorporated by reference in its entirety).
Dual-Glo system (Promega) for luciferase assay was used. […] Luminescence was measured using Wallac Victor 1420 (Perkin-Elmer). […]

[3] = tested on: MOR23-1; test: CRE-luciferase reporter gene assay, MOR23-1
Procedure: Four ORs (S6/79, S18, S46 and S50) previously assayed using other techniques (see, e.g., Malnic, B., et al. (1999) Cell 96, 713-723; herein incorporated by reference in its entirety) were tested against an assay panel of aliphatic alcohols, aldehydes and acids and some other odorants. Additionally, five “orphan” class I ORs (MOR23-1, MOR31-4, MOR31-6, MOR32-5 and MOR32-11) whose cognate ligands were unknown were tested. At a suprathreshold concentration of 100 uM, all these ORs were odorant selective, responding to only a small subset of the odorants tested (see FIG. 11A). This specificity was retained at lower, more physiologically relevant concentrations. Many of these ORs responded to odorants present in micromolar concentrations. The cell-surface expression of these ORs by living-cell immunofluorescence were evaluated. Some ORs (S18, MOR31-4, MOR31-6 and MOR32-5) were strongly expressed while other ORs (S6, S50, MOR23-1, MOR32-11) were weakly expressed (see FIG. 12). […]
Dual-Glo system (Promega) for luciferase assay was used. […] Luminescence was measured using Wallac Victor 1420 (Perkin-Elmer). Normalized luciferase activity was calculated as [Luc (N)-Luc (0)]/RL (N), where Luc (N)=Luminescent count of a certain well, Luc (0)=Luminescent count without odorant for each OR, and RL (N)=Luminescent count of Renilla Luciferase of each well. […]

B1: RTP1-A1: RTP1 variant from deleting portions of RTP1-A; murine SEQ ID NO: 46, human SEQ ID NO: 47 (protein, listed as Mus musculus)
chain: MCKSVTTGEWKKVFYEKMEEVKPADSWDFIIDPNLKHNVLAPGWKQYLELHASGRFHCSWCWHTWQSPHVVILFHMYLDKAQRAGSVRMRVFKQLCYECGTARLDESSMLEENIESLVDNLITSLREQCYGERGGHYRIHVASRQDNRRHRGEFCEACQEGIVHWKPSEKLLEEEATTYTFSRAPSPTKPQAETGSGCNFCSIPWCLFWATVLMLIIYLQFSFRTSV
Increased enhancement: OLFR62 activity as indicated by luciferase expression [1] | S6 activity as indicated by luciferase expression [2] | 23-1 activity as indicated by luciferase expression [3]
